T1: mouse VEGF165 (Mus musculus, UniProt Q00731)
T1 sequence (Q00731 27-190 isoform Q00731-2): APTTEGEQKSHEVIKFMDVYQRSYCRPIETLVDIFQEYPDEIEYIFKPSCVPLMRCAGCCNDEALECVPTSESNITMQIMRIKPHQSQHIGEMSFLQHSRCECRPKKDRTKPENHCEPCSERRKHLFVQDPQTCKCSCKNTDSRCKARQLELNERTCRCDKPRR


Key:
mouse VEGF165 = target: T1, mouse VEGF165; assay: Biacore binding affinity (KD) to mouse VEGF
Description: (§1) The KDs of parental antibodies anti-VEGF 219R45 (IgG format), anti-DLL4 21R79 (IgG format), anti-DLL4 21M18 (IgG format) and bispecific antibodies 219R45-MB-21M18 and 219R45-MB-21R79 were determined using a Biacore 2000 system from Biacore LifeSciences (GE Healthcare). Recombinant human DLL4-Fc or mouse DLL4-Fc proteins were immobilized on CM5 carboxyl chips using standard amine-based chemistry (NHS/EDC) and blocked with ethanolamine. Recombinant human VEGF165 or mouse VEGF165 were biotinylated and immobilized on streptavidin chips. The antibodies were serially diluted 2-fold from 100 nM to 0.78 nM in HBS-P (0.01M HEPES pH7.4, 0.15M NaCl, 0.005% v/v Polysorbate 20). For each antibody, all 8 dilutions were sequentially injected over a specific chip. Kinetic data were collected over time and were fit using the simultaneous global fit equation to yield affinity constants (KD values) for each bispecific antibody.

mouse DLL4-Fc = assay: Biacore binding affinity (KD) to mouse DLL4; conditions: Biacore 2000, mouse DLL4-Fc on CM5 chip; read-out: KD mDLL4
Description: as §1

[1] = system: DLL4-induced Notch signaling; assay: DLL4-induced Notch signaling luciferase reporter assay in Notch2-expressing PC3 cells; format: cell-based; conditions: coated human DLL4 100 ng/well, antibody 20 to 0.064 ug/ml
Description: FIG. 4. Inhibition of DLL4-induced Notch signaling by anti-VEGF/anti-DLL4 bispecific antibodies. Luciferase activity was measured using a dual luciferase assay kit with firefly luciferase activity normalized to Renilla luciferase activity. 219R45-MB-21M18 (-●-); 219R45-MB-21R79 (-▪-); 21M18 (-∘-); 21R79 (-□-).
Human PC3 cells were transfected with an expression vector encoding a full-length human Notch2 receptor and a firefly luciferase reporter vector (8× CBF-luciferase reporter) that is responsive to Notch signaling. The cells were also transfected with a Renilla luciferase reporter (Promega, Madison, Wis.) as an internal control for transfection efficiency. Purified human DLL4 protein was coated onto 96-well plates at 100 ng/well and Notch2-expressing PC3-luc cells were added to the wells. Anti-VEGF/anti-DLL4 bispecific antibodies 219R45-MB-21M18, 219R45-MB-21R79, parental anti-DLL4 antibodies 21M18, 21R79 or a control antibody LZ1 were serially diluted 5-fold from 20 ug/ml to 0.064 ug/ml, added to the appropriate wells, and incubated overnight. Luciferase activity was determined using a dual luciferase assay kit (Promega, Madison, Wis.) with firefly luciferase activity normalized to Renilla luciferase activity.

[2] = system: OMP-PN8 pancreatic tumor cells; assay: Tumorigenicity of OMP-PN8 pancreatic tumor cells after treatment (serial transplantation); format: in vivo, NOD/SCID mice; conditions: 90 cells from treated tumors transplanted, day 55, no treatment; 21M18, bevacizumab 15 mg/kg, bispecifics 30 mg/kg, gemcitabine 70 mg/kg, four weeks
Description: FIG. 6. Tumorigenicity of pancreatic tumor cells after treatment with anti-VEGF/anti-DLL4 bispecific antibodies. OMP-PN8 tumor cells from mice treated with control antibody, anti-hDLL4 antibody 21M18, anti-VEGF antibody bevacizumab, or anti-VEGF/anti-DLL4 bispecific antibodies 219R45-MB-21M18 or 219R45-MB-21R79 with or without gemcitabine were processed to single cell suspensions, and serially transplanted into mice. 90 cells from each treatment group were injected subcutaneously into NOD/SCID mice. Tumors were allowed to grow with no treatment. Data is shown as tumor volume (mm^3) on day 55. Tumor frequency is shown as number of tumors over total number of mice injected in each group.
Mice bearing OMP-PN8 pancreatic tumors were treated with control antibody (15 mg/kg), anti-hDLL4 antibody 21M18 (15 mg/kg), anti-VEGF antibody bevacizumab (15 mg/kg), or anti-VEGF/anti-DLL4 bispecific antibodies 219R45-MB-21M18 or 219R45-MB-21R79 (30 mg/kg) with or without gemcitabine (70 mg/kg). Following four weeks of treatment, tumors were harvested, processed to single cell suspensions and the human tumor cells were purified by immunomagnetic depletion of murine cells. 90 human tumor cells from each treatment group were transferred to a new cohort of mice (n=10 mice/group). Tumors were allowed to grow for 55 days without any treatment and tumor volumes were measured with electronic calipers.

OMP-C8 colon tumor = assay: Tumorigenicity of OMP-C8 colon tumors after treatment (serial transplantation); format: in vivo, NOD/SCID mice; conditions: 150 cells from treated tumors transplanted, day 68; for tumor growth frequency, single agents: without irinotecan combination
Description: FIG. 10. Tumorigenicity of […] colon tumor cells after treatment with anti-VEGF/anti-DLL4 bispecific antibodies. Tumors from mice treated with control antibody, anti-hDLL4 antibody 21M18, anti-VEGF antibody bevacizumab, a combination of 21M18 and bevacizumab, or anti-VEGF/anti-DLL4 bispecific antibodies 219R45-MB-21M18 or 219R45-MB-21R79 with or without irinotecan were processed to single cell suspensions, and serially transplanted into mice. 150 cells from each treatment group were injected subcutaneously into NOD/SCID mice. Tumors were allowed to grow with no treatment. Data are shown as tumor volume (mm^3) on day 68.
Single cell suspensions of OMP-C8 colon tumor xenografts (20,000 cells) were injected subcutaneously into the flanks of 6-8 week old NOD/SCID mice. Tumors were allowed to grow for 33 days until they reached an average volume of 300 mm^3. The mice were randomized (n=5 per group) and treated with anti-DLL4 antibody 21M18, anti-VEGF antibody bevacizumab, a combination of antibodies 21M18 and bevacizumab, anti-VEGF/anti-DLL4 bispecific antibody 219R45-MB-21M18, anti-VEGF/anti-DLL4 bispecific antibody 219R45-MB-21R79, or control antibody, either in combination with irinotecan or without irinotecan. Antibodies and irinotecan were dosed weekly by injection into the intraperitoneal cavity. Antibodies 21M18 and bevacizumab were dosed at 7.5 mg/kg, bispecific antibodies 219R45-MB-21M18 and 219R45-MB-21R79 were dosed at 15 mg/kg, and irinotecan was dosed at 45 mg/kg. Tumors were harvested after 4 weeks, processed into single cell suspensions, and the human tumor cells were isolated. 150 tumor cells from each experimental group were injected subcutaneously into a new cohort of mice (n=10 per group) and tumors were allowed to grow without treatment. Tumor growth was monitored and tumor volumes were measured with electronic calipers.

mouse DLL4-Fc, sequence (Q9JI71 27-519 limits assumed): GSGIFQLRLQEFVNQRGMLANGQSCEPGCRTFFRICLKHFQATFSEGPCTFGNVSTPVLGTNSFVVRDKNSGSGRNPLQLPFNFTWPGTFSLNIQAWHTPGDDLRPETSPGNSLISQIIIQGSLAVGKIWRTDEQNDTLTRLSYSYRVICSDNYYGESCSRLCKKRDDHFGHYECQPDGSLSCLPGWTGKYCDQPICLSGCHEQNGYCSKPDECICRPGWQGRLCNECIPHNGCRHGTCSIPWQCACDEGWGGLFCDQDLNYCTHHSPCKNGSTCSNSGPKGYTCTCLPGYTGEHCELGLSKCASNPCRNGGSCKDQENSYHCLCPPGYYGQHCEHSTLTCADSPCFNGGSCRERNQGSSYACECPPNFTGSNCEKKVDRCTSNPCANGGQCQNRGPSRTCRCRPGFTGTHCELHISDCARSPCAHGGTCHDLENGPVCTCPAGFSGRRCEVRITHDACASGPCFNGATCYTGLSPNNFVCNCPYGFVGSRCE

Kd (mouse VEGF165; Biacore 2000, biotinylated mouse VEGF165 on streptavidin chip, read-out: KD mVEGF) [nM]	Molecule	Kd (mouse DLL4-Fc) [nM]	inhibition of DLL4-induced Notch signaling [1]	tumor growth frequency (mice with tumors) [2]	tumor growth frequency, single agents (OMP-C8 colon tumor)	binding to mouse VEGF (in words) (mouse VEGF165)	tumor growth frequency, combination of irinotecan and antibodies (OMP-C8 colon tumor; with irinotecan 45 mg/kg)
> 100	21M18: anti-DLL4 antibody, parental antibody (Hoey et al., 2009; U.S. Pat. No. 7,750,124) (antibody, V domains shown) VH: QVQLVQSGAEVKKPGASVKISCKASGYSFTAYYIHWVKQAPGQGLEWIGYISSYNGATNYNQKFKGRVTFTTDTSTSTAYMELRSLRSDDTAVYYCARDYDYDVGMDYWGQGTLVTVSS VL: DIVMTQSPDSLAVSLGERATISCRASESVDNYGISFMKWFQQKPGQPPKLLIYAASNQGSGVPDRFSGSGSGTDFTLTISSLQAEDVAVYYCQQSKEVPWTFGGGTKVEIK	> 100	inhibited DLL4-induced Notch signaling	5 out of 10	reduced tumor growth frequency	–	–
–	219R45-MB-21R79: anti-VEGF/anti-DLL4 monovalent/bispecific antibody, heavy chains SEQ ID NO:7 and 6, light chains SEQ ID NO:8 (antibody, 21R79 Heavy chain without predicted signal sequence; Light chain without predicted signal sequence) heavy 1: QVQLVQSGAEVKKPGASVKVSCKASGYTFTNYWMHWVRQAPGQGLEWMGDINPSNGRTSYKEKFKRRVTLSVDKSSSTAYMELSSLRSEDTAVYFCTIHYDDKYYPLMDYWGQGTLVTVSSASTKGPSVFPLAPCSRSTSESTAALGCLVKDYFPEPVTVSWNSGALTSGVHTFPAVLQSSGLYSLSSVVTVPSSNFGTQTYTCNVDHKPSNTKVDKTVERKCCVECPPCPAPPVAGPSVFLFPPKPKDTLMISRTPEVTCVVVDVSHEDPEVQFNWYVDGVEVHNAKTKPREEQFNSTFRVVSVLTVVHQDWLNGKEYKCKVSNKGLPAPIEKTISKTKGQPREPQVYTLPPSREKMTKNQVSLTCLVKGFYPSDIAVEWESNGQPENNYKTTPPMLKSDGSFFLYSKLTVDKSRWQQGNVFSCSVMHEALHNHYTQKSLSLSPGK heavy 2: QVQLVQSGAEVKKPGASVKISCKASGYSFTAYYIHWVKQAPGQGLEWIGYIANYNRATNYNQKFKGRVTFTTDTSTSTAYMELRSLRSDDTAVYYCARDYDYDVGMDYWGQGTLVTVSSASTKGPSVFPLAPCSRSTSESTAALGCLVKDYFPEPVTVSWNSGALTSGVHTFPAVLQSSGLYSLSSVVTVPSSNFGTQTYTCNVDHKPSNTKVDKTVERKCCVECPPCPAPPVAGPSVFLFPPKPKDTLMISRTPEVTCVVVDVSHEDPEVQFNWYVDGVEVHNAKTKPREEQFNSTFRVVSVLTVVHQDWLNGKEYKCKVSNKGLPAPIEKTISKTKGQPREPQVYTLPPSREEMTKNQVSLTCLVEGFYPSDIAVEWESNGQPENNYKTTPPMLDSDGSFFLYSELTVDKSRWQQGNVFSCSVMHEALHNHYTQKSLSLSPGK light: DIVMTQSPDSLAVSLGERATISCRASESVDNYGISFMKWFQQKPGQPPKLLIYAASNQGSGVPDRFSGSGSGTDFTLTISSLQAEDVAVYYCQQSKEVPWTFGGGTKVEIKRTVAAPSVIFPPSDEQLKSGTASVVCLLNNFYPREAKVQWKVDNALQSGNSQESVTEQDSKDSTYSLSSTLTLSKADYEKHKVYACEVTHQGLSSPVTKSFNRGEC	> 100	inhibited DLL4-induced Notch signaling	4 out of 10	reduced tumor growth frequency	bind mouse VEGF	–
–	219R45-MB-21M18: anti-VEGF/anti-DLL4 monovalent/bispecific antibody, heavy chains SEQ ID NO:7 and 5, light chains SEQ ID NO:8 (antibody, 21R79 Heavy chain without predicted signal sequence; 21M18 Heavy chain without predicted signal sequence; Light chain without predicted signal sequence) heavy 1: QVQLVQSGAEVKKPGASVKVSCKASGYTFTNYWMHWVRQAPGQGLEWMGDINPSNGRTSYKEKFKRRVTLSVDKSSSTAYMELSSLRSEDTAVYFCTIHYDDKYYPLMDYWGQGTLVTVSSASTKGPSVFPLAPCSRSTSESTAALGCLVKDYFPEPVTVSWNSGALTSGVHTFPAVLQSSGLYSLSSVVTVPSSNFGTQTYTCNVDHKPSNTKVDKTVERKCCVECPPCPAPPVAGPSVFLFPPKPKDTLMISRTPEVTCVVVDVSHEDPEVQFNWYVDGVEVHNAKTKPREEQFNSTFRVVSVLTVVHQDWLNGKEYKCKVSNKGLPAPIEKTISKTKGQPREPQVYTLPPSREKMTKNQVSLTCLVKGFYPSDIAVEWESNGQPENNYKTTPPMLKSDGSFFLYSKLTVDKSRWQQGNVFSCSVMHEALHNHYTQKSLSLSPGK heavy 2: QVQLVQSGAEVKKPGASVKISCKASGYSFTAYYIHWVKQAPGQGLEWIGYISSYNGATNYNQKFKGRVTFTTDTSTSTAYMELRSLRSDDTAVYYCARDYDYDVGMDYWGQGTLVTVSSASTKGPSVFPLAPCSRSTSESTAALGCLVKDYFPEPVTVSWNSGALTSGVHTFPAVLQSSGLYSLSSVVTVPSSNFGTQTYTCNVDHKPSNTKVDKTVERKCCVECPPCPAPPVAGPSVFLFPPKPKDTLMISRTPEVTCVVVDVSHEDPEVQFNWYVDGVEVHNAKTKPREEQFNSTFRVVSVLTVVHQDWLNGKEYKCKVSNKGLPAPIEKTISKTKGQPREPQVYTLPPSREEMTKNQVSLTCLVEGFYPSDIAVEWESNGQPENNYKTTPPMLDSDGSFFLYSELTVDKSRWQQGNVFSCSVMHEALHNHYTQKSLSLSPGK light: DIVMTQSPDSLAVSLGERATISCRASESVDNYGISFMKWFQQKPGQPPKLLIYAASNQGSGVPDRFSGSGSGTDFTLTISSLQAEDVAVYYCQQSKEVPWTFGGGTKVEIKRTVAAPSVIFPPSDEQLKSGTASVVCLLNNFYPREAKVQWKVDNALQSGNSQESVTEQDSKDSTYSLSSTLTLSKADYEKHKVYACEVTHQGLSSPVTKSFNRGEC	> 100	inhibited DLL4-induced Notch signaling only at high antibody concentrations	5 out of 10	reduced tumor growth frequency	bind mouse VEGF	had the greatest effect in reducing tumor growth frequency
